From FireProtDB (doi:10.1021/bi991422s) come the findings set out here.

Usually Tm stands for the temperature at the midpoint of the melting transition.

The conditions of the data set: Aspergillus oryzae (strain ATCC 42149 / RIB 40), pH 7, DSC, MOPS 30 mM, reversible: yes, whole UniProt chain shown; for denaturant m value / denaturant midpoint (higher = more stable) / unfolding free energy: Urea.

B1: Guanyl-specific ribonuclease T1 wild type, P00651 (protein)
chain: MMYSKLLTLTTLLLPTALALPSLVERACDYTCGSNCYSSSDVSTAQAAGYQLHEDGETVGSNSYPHKYNNYEGFDFSVSSPYYEWPILSSGDVYSGGSPGADRVVFNENNQLAGVITHTGASGNNFVECT
As to B1, the denaturant m value (5 °C) was 1.18 kcal/mol/M; the denaturant m value (10 °C) was 1.18 kcal/mol/M; the denaturant m value (15 °C) amounted to 1.14 kcal/mol/M; the denaturant m value (20 °C) was 1.18 kcal/mol/M; the denaturant m value (25 °C) turned out to be 1.17 kcal/mol/M. The “denaturant midpoint (higher = more stable)” value amounted to 7.04 M (5 °C); 6.7 M (10 °C); 6.43 M (15 °C); 5.71 M (20 °C); 5.2 M (25 °C). The unfolding free energy was 8.32 kcal/mol (5 °C); 7.87 kcal/mol (10 °C); 7.34 kcal/mol (15 °C); 6.72 kcal/mol (20 °C); 6.09 kcal/mol (25 °C). Also, the Tm (Thermal) amounted to 50.8 °C. Further, the “unfolding enthalpy (calorimetric)” value (Thermal) came out at 96.6 kcal/mol.
